In patent US20240342283A1 (SHANDONG BOAN BIOTECHNOLOGY, published 2024):

What was measured:
[1] = target: T1, Receptor tyrosine kinase-like orphan receptor 1 (ROR1) on ROR1-positive cells (human, UniProt Q01973 30-937); experiment: cell-based or functional assay
[2] = target: T2, Biotinylated Human ROR1 Protein, His, Avitag (Acro biosystem) (human, UniProt Q01973 30-403, biotinylated (Avitag)); experiment: flow cytometry of CAR-electroporated primary T cells stained with Biotinylated Human ROR1 Protein, His, Avitag
T2 construct: Bought reagent; not shown: His tag and Avitag
Text: To screen for CAR activity, the above-obtained T cells were electroporated with PiggyBac plasmids (shown in FIG. 3) with the CAR cassette as well as PiggyBac Transposon mRNA. CAR expression in primary T cells was confirmed by flow cytometry using Biotinylated Human ROR1 Protein, His, Avitag (Acro biosystem) (FIG. 18A).

[3] = target: T1, Receptor tyrosine kinase-like orphan …; experiment: cell-based or functional assay; remark: listed apart in the source

T1 sequence (Q01973 30-937): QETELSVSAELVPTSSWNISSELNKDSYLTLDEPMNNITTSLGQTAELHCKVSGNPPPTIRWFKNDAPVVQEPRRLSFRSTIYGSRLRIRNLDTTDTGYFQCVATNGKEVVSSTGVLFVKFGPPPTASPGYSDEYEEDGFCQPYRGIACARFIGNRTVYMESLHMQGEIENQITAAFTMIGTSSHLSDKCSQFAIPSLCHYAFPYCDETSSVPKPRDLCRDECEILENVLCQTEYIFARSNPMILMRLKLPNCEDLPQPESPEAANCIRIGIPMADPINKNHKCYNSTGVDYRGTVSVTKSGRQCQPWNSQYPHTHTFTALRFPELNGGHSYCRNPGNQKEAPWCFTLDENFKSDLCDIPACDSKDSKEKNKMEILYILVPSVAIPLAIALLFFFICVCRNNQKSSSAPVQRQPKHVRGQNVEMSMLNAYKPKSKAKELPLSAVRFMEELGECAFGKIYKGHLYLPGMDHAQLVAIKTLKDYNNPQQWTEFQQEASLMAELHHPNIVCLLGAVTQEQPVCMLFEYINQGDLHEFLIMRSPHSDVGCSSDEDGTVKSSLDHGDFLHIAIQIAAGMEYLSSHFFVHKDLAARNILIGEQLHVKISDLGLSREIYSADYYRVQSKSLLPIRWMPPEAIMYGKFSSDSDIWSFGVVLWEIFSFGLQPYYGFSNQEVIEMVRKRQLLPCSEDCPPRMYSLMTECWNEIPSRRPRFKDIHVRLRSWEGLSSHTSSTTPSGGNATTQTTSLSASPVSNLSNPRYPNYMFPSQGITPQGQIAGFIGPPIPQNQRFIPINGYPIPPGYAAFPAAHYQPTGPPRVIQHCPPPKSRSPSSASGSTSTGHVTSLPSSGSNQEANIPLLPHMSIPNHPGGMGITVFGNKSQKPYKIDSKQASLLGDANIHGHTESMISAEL
T2 sequence (Q01973 30-403 limits assumed): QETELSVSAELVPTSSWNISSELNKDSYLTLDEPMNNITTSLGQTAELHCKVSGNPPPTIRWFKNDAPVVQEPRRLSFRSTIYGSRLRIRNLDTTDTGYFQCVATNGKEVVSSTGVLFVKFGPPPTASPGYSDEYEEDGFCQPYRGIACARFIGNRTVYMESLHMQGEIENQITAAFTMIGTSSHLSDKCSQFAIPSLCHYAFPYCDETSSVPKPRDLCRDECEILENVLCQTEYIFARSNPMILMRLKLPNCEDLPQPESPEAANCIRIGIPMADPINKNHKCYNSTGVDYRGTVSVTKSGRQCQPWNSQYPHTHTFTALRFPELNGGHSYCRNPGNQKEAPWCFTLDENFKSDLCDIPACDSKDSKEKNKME

Binder	IFN-gamma cytokine release (pg/mL), co-culture with MDA-MB-231, Effector to Target ratio 1:1 [1]	IFN-gamma cytokine release (pg/mL), co-culture with MDA-MB-231, Effector to Target ratio 3:1 [1]	CAR Positive rate [2]	Specific lysis (%) of MDA-MB-231, Effector to Target ratio 1:1 [3]	Specific lysis (%) of MDA-MB-231, Effector to Target ratio 3:1 [3]
RC005c (other, Chimeric antigen receptor on electroporated Jurkat cells or primary T cells; also called RC005c (hu709 VH4VL2); hu709 VH4VL2 CAR) CAR: EVQLVQSGAEVKKPGATVKISCKVSGYTFTDYEMHWVKQAPGKGLEWIGAIDPETGGTAYNQKFKGRATITADKSSSTAYMELSSLRSEDSAVYYCTPYYGYAMDYWGQGTLVTVSSGGGGSGGGGSGGGGSDIQLTQSPSFLSASVGDRVTITCKASQNVGTNVAWYQQKPGKAPKLLIYWASTRHTGVPSRFSGSGSGTEFTLTISSLQPEDFATYFCQQYSSYPLTFGQGTKLEIKTTTPAPRPPTPAPTIASQPLSLRPEACRPAAGGAVHTRGLDFACDIYIWAPLAGTCGVLLLSLVITLYCKRGRKKLLYIFKQPFMRPVQTTQEEDGCSCRFPEEEEGGCELRVKFSRSADAPAYKQGQNQLYNELNLGRREEYDVLDKRRGRDPEMGGKPRRKNPQEGLYNELQKDKMAEAYSEIGMKGERRRGKGHDGLYQGLSTATKDTYDALHMQALPPR	14600 pg/mL	36800 pg/mL	28%	10.6%	32.6%
R12 ROR1 CAR (other, Benchmark chimeric antigen receptor on electroporated primary T cells; also called R12 CAR; Benchmark Control R12) CAR: QEQKVESGGRLVTPGGSLTLSCKASGFDFSAYYMSWVRQAPGKGLEWIATIYPSSGKTYYATWVNGRFTISSDNAQNTVDLQMNSLTAADRATYFCARDSYADDGALFNIWGPGTLVTISSGGGGSGGGGSGGGGSELVLTQSPSVSAALGSPAKITCTLSSAHKTDTIDWYQQLQGEAPRYLMQVQSDGSYTKRPGVPDRFSGSSSGADRYLIIPSVQADDEADYYCGADYIGGYVFGGGTQLTVTGTTTPAPRPPTPAPTIASQPLSLRPEACRPAAGGAVHTRGLDFACDIYIWAPLAGTCGVLLLSLVITLYCKRGRKKLLYIFKQPFMRPVQTTQEEDGCSCRFPEEEEGGCELRVKFSRSADAPAYKQGQNQLYNELNLGRREEYDVLDKRRGRDPEMGGKPRRKNPQEGLYNELQKDKMAEAYSEIGMKGERRRGKGHDGLYQGLSTATKDTYDALHMQALPPR	20500 pg/mL	40600 pg/mL	30.7%	12.6%	28.9%
